From publication PMC7870927, “Mechanism of the small ATP-independent chaperone Spy is substrate specific” (Nature Communications, 2021)
Values joined by “and” are separate entries in the source; they are usually repeats but may differ in a detail not shown here. Equal entries are not always repeated.

T1: apoflavodoxin from Anabaena PCC 7119, F98N mutant (Anabaena PCC 7119, UniProt P0A3E0 3-170, F98N)
T1 construct: also called AnFld F98N; I^T mimic; source: E. coli BL21 (DE3), purified (same protocol as AnFld WT); not shown: His6, N-terminal, cleaved; SUMO, N-terminal, cleaved
T1 sequence: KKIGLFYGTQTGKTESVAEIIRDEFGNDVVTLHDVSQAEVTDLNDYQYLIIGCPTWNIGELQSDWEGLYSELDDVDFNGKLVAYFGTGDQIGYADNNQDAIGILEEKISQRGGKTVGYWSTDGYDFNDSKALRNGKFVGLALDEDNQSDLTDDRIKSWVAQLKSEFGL

T2: apoflavodoxin from Anabaena PCC 7119, wild type (Anabaena PCC 7119, UniProt P0A3E0 3-170)
T2 construct: flavodoxin (apo form, without FMN) from Anabaena PCC 7119; gene codon-optimised, synthesised by GenScript; The same protein was used native and urea-denatured (5 M urea, then diluted: state U*); the assays tell the two apart; [U-2H,15N,13C]-labelled for the NMR titration; also called AnFld; AnFld WT; source: E. coli BL21 (DE3), purified (Ni-His Trap, ULP1 cleavage, HiTrap Q, Superdex 75; …)
T2 sequence: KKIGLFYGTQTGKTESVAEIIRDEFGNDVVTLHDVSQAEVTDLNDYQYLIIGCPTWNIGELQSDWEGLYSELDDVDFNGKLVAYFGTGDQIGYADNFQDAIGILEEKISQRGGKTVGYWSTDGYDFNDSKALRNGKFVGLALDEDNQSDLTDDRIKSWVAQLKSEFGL

T3: apoflavodoxin from Anabaena PCC 7119, L105A I109A double mutant (Anabaena PCC 7119, UniProt P0A3E0 3-170, L105A | I109A)
T3 sequence: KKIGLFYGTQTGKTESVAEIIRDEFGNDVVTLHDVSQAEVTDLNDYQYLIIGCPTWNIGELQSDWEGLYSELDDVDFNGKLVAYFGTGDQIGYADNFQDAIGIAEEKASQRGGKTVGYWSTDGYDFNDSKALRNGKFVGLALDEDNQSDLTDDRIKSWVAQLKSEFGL

T4: apoflavodoxin from Anabaena PCC 7119, wild type (Anabaena PCC 7119, UniProt P0A3E0 3-170)
T4 chain: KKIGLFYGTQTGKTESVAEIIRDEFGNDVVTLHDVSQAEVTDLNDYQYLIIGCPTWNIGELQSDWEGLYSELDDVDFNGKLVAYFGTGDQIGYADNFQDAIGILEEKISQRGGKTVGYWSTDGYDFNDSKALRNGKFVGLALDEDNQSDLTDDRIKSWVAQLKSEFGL

T5: apoflavodoxin from Anabaena PCC 7119, L105A I109A double mutant (Anabaena PCC 7119, UniProt P0A3E0 3-170, L105A | I109A)
T5 construct: flavodoxin (apo form) from Anabaena PCC 7119 with the two destabilising mutations L105A and I109A; also called AnFld 2A; AnFld2A; source: E. coli BL21 (DE3), purified (same protocol as AnFld WT); not shown: His6, N-terminal, cleaved; SUMO, N-terminal, cleaved
T5 sequence: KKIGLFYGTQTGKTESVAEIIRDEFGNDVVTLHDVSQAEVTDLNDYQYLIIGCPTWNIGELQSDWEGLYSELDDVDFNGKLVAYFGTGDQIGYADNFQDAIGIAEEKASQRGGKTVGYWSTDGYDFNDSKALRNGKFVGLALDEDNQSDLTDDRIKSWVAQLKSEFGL

T6: apoflavodoxin from Anabaena PCC 7119, F98N mutant (Anabaena PCC 7119, UniProt P0A3E0 3-170, F98N)
T6 sequence: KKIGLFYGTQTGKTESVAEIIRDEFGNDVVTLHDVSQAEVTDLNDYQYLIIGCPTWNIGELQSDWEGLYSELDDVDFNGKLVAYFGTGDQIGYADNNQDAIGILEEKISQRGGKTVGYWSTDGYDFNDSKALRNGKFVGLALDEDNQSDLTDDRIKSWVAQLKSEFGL


Experiments:
[1] = molecular target: Im7 (intermediate and unfolded states) (Escherichia coli) (UniProt Q03708); details: cited from earlier work
Im7 (intermediate and unfolded states) (Escherichia coli), sequence (Q03708 whole entry): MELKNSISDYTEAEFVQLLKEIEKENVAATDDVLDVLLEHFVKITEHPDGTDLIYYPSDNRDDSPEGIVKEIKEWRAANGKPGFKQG

[2] = molecular target: Im7 (native) (Escherichia coli) (UniProt Q03708); details: cited from earlier work
Im7 (native) (Escherichia coli), sequence (Q03708 whole entry): as above

[3] = molecular target: Fyn SH3 (native) SH3 (UniProt P06241); details: cited from earlier work
Fyn SH3 (native) SH3, sequence (P06241 82-143): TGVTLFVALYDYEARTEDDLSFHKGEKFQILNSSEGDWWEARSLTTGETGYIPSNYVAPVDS

[4] = molecular target: Fyn SH3 (unfolded) SH3 (UniProt P06241); details: cited from earlier work
Fyn SH3 (unfolded) SH3, sequence (P06241 82-143): as above

[5] = molecular target: T1, apoflavodoxin from Anabaena PCC 7119, …; assay: ITC; 550 µM Spy dimer in the syringe, 50 µM AnFld F98N in the cell; 40 mM HEPES-KOH pH 7.5, 100 mM NaCl; 10 °C; one-site binding model; details: both partners purified
[6] = molecular target: T2, apoflavodoxin from Anabaena PCC 7119, …; assay: other fluorescence titration; stopped-flow refolding: AnFld denatured in 5 M urea diluted 11.5-fold (0.09 µM final) into HN buffer (40 mM HEPES-KOH pH 7.5, 100 mM NaCl) with Spy dimer, 25 °C; normalised initial tryptophan fluorescence against Spy dimer concentration, one-site binding model; non-native state U* of AnFld; details: both partners purified
[7] = molecular target: T3, apoflavodoxin from Anabaena PCC 7119, …; assay: ITC; second site (K2)
[8] = molecular target: T4, apoflavodoxin from Anabaena PCC 7119, …; assay: initial fluorescence from kinetic fits
[9] = molecular target: T4, apoflavodoxin from Anabaena PCC 7119, …; assay: ITC; 10 °C
[10] = molecular target: T7, apoflavodoxin from Azotobacter vinelandii, C69A (Azotobacter vinelandii, UniProt P00324 1-180, C69A); assay: AUC; sedimentation velocity of Spy with AnFld or AzoFld, 48,000 r.p.m., absorbance at 280 nm; 2DSA, genetic algorithm, Monte Carlo; details: both partners purified
T7 construct: flavodoxin (apo form) from Azotobacter vinelandii with C69A; The only AzoFld gene that the methods name is C69A; also called AzoFld; AzoFld C69A; source: E. coli BL21 (DE3), purified (same protocol as AnFld WT); not shown: His6, N-terminal, cleaved; SUMO, N-terminal, cleaved
T7 sequence (P00324 whole entry C70A): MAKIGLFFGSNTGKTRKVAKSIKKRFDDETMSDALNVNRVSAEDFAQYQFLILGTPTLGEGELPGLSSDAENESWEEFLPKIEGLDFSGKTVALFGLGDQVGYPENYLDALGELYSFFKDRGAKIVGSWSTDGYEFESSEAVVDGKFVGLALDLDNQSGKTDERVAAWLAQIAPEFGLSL

[11] = molecular target: T2, apoflavodoxin from Anabaena PCC 7119, …; assay: as above; details: both partners purified
[12] = molecular target: T2, apoflavodoxin from Anabaena PCC 7119, …; assay: ITC; 550 µM Spy dimer in the syringe, 50 µM AnFld WT in the cell; 40 mM HEPES-KOH pH 7.5, 100 mM NaCl; MicroCal iTC200; temperature not shown; details: both partners purified
[13] = molecular target: T5, apoflavodoxin from Anabaena PCC 7119, …; assay: other fluorescence titration; equilibrium titration of Spy dimer into 17.2 µM native AnFld WT (square hyperbola, one-site) or 10 µM AnFld 2A (quadratic tight-binding model) in HN buffer, 25 °C; intrinsic tryptophan fluorescence at 340 nm; apparent; details: both partners purified
[14] = molecular target: T2, apoflavodoxin from Anabaena PCC 7119, …; assay: as above; details: both partners purified
[15] = molecular target: T6, apoflavodoxin from Anabaena PCC 7119, …; assay: ITC; 10 °C
[16] = molecular target: T5, apoflavodoxin from Anabaena PCC 7119, …; assay: ITC + other: kinetic unfolding experiments; ITC: 1.2 mM Spy dimer in the syringe, 100 µM AnFld 2A in the cell; 40 mM HEPES-KOH pH 7.5, 100 mM NaCl; one-site or two-site models; two binding-competent conformations of AnFld 2A; details: both partners purified
[17] = molecular target: T3, apoflavodoxin from Anabaena PCC 7119, …; assay: ITC; first site (K1)

Molecule	Kd [1]	Kd [2]	Kd [3]	Kd [4]	Kd [5]	Kd [6]	Ka [7]	Kd [8]	Ka [9]	stoichiometry N [10]	stoichiometry N [11]	Kd [12]	Kd [13]	Kd [14]	Ka [15]	KD of one of two binding-competent conformations of AnFld 2A [16]	Ka [17]
Spy (from UniProt P77754)	4.7 µM	20.5 µM	50 µM	2.9 µM													
Spy (small bacterial ATP-independent chaperone) (natural protein, UniProt P77754 24-161, looked up, chaperone Spy; Used and counted as a dimer throughout ('Spy dimer'); also called Spy dimer; SpyD; source: E. coli BL21 (DE3), purified (Ni-His Trap, ULP1 cleavage, HiTrap Q, HiLoad Superdex 75); not shown: His6, N-terminal, cleaved; SUMO, N-terminal, cleaved) ADTTTAAPADAKPMMHHKGKFGPHQDMMFKDLNLTDAQKQQIREIMKGQRDQMKRPPLEERRAMHDIIASDTFDKVKAEAQIAKMEEQRKANMLAHMETQNKIYNILTPEQKKQFNANFEKRLTERPAAKGKMPATAE					1.8 µM	0.35 µM	4.37e+06 M⁻¹	17.7 µM	35500 M⁻¹	1 AzoFld per Spy dimer	1 AnFld per Spy dimer	28.2 µM	0.1 µM	40 µM	801000 M⁻¹	0.23 µM and 0.38 µM	2.65e+06 M⁻¹
